Data published in US20230226096A1 (Orna Therapeutics, Inc., priority 2020, published 2023).

B1: Aichivirus Rt386 (nucleic acid, listed as Aichivirus sp.)
DNA: ACTCCATTCAGCTTCTTCGGAACCTGTTCGGAGGAATTAAACGGGCACCCACTTTCCTGTCCTCTCCCCCTTTCTGCAACTCAAGTGTGTGCTCGTAATCCTGACTCCCACGGGTTGACCGCCCCGTTGGTGAACAAACAGCTAGGTCATTCCCTCCCTACCCCTGGGCGCCATTTCAGTGGCGTTCATATCCTCCCCCCAGCCTGACGTGTCACAGGCTGTGCAAAGTCCCCGCGAAAGCTGCTCACGTGGCAATTGTGGGTCCCCCCTTTGTGAAGGAACCGAGTCTTTCTCCCTTAAGGCTAGACCCCTGTGTGAACTCACAGGTGGCAACTAGTGGTTCCACTGCATGCTCCCGACCTCGGCCGCGGAGTGCTGTTCCCCAAGTCGTGACACTGACCTCCACTTATGTGCCTGGCAAGCATATCTGAGAAGATGTTCCGCTGTGGCTGCCAAACCTGGTAACAGGTGCCCCAGTGCGTGTAGTCTTCTTCCGTCTCCGGACGGTAAGTGTGTGGTAAAGATGCGGCGTAAGGTTCAAGTGCCAACGCCCTGGAAGGGATGACCCTTCTACTGCCCTAGGAATGCCGCGCAGGTACCCCAGGTTCGCCTGGGATCTGAGCGCGGGCTAATTGTCTACGGGTAGTTTCATTTCCCTCTCTTTTCACTGGCATC
B2: Aichivirus DVI2321 (nucleic acid, listed as Aichivirus sp.)
DNA: GCTTCTTCGGAACCTGTTCGGAGGAATTAAACGGGCACCCATACACCCCCACCCCCTTTTCTGCAACTTAAGTATGTGTGCTCGTAATCTTGACTCCCACGGAATGGATCGATCCGCTGGAGAACAAACTGCTAGATCCACATCCTCCCTTCCCCTGGGAGGACCCCGGTCCTCCCACATCCTCCCCCCAGCCTGACGTATCACAGGCTGTGTGAAGTCCCCGCGAAAGCTGCTCACGTGGCAATTGTGGGTCCCCCCTTCATCAAGACACCAGGTCTTTCCTCCTTAAGGCTAGCCCCGATGTGTGAATTCACATTGGGCAACTAGTGGTGTCACTGTGCGCTCCCAATCTCGGCCGCGGAGTGCTGTTCCCCAAGCCAAACCCCTGGCCCTTCACTATGTGCCTGGCAAGCATATCTGAGAAGGTGTTCCGCTGTGGCTGCCAGCCTGGTAACAGGTGCCCCAGTGTGCGTAACCTTCTTCCGTCTCCGGACGGTAGTGATTGGTTAAGATTTGGTGTAAGGTTCATGTGCCAACGCCCTGTGCGGGATGAAACCTCTACTGCCCTAGGAATGCCAGGCAGGTACCCCACCTTCGGGTGGGATCTGAGCCTGGGCTAATTGTCTACGGGTAGTTTCATTTCCAATTCTTTTATGTCGGAGTC
B3: Aichivirus rat08 (nucleic acid, listed as Aichivirus sp.)
DNA: TACTCCATTCAGCTTCTTCGGAACCTGTTCGGAGGAATTAAACGGGCACCCACTTTCCTGTCCTCTCCCCTTTTCTGTAACTCCAAGTGTGTGCTCGTAATCTTGACTCCCGCGGATTGACCGCTCCGCTGGTGAACAAACTGCTAGGTCATCTCCTCCCCACCCTTGGGCGTCCTTCCGGGCGTCCACACCCTCCCCCCAGCCTGACGTGTCACAGGCTGTACAAAGACCCCGCGAAAGCTGCTAACGTGGCAATTGTGGGTCCCCCCTTTGTAAAGGAACCGAGTCTTTCTCCCTTAAGGCTAGACCCCTGTGTGAATTCACAGGTGGCAACTAGTGGTTCCACTGCATGCTCCCGACCTCGGCCGCGGAGTGCTGTTCCCCAAGTCGTAACACTGACCTTCACTTATGTGCCTGGCAAGCATATCTGAGAAGATGTTCCGCTGTGGCTGCCAAACCTGGTAACAGGTGCCCCAGTGTGCGTAGTCTTCTTCCGTCTTCGGACGGTAGGTGTTAGGTAAAGATGCGGCGTAAGGTTCAAGTGCCAACGCCCTGGAAGGGATGACCCTTCTACTGCCCTAGGAATGCCGCGCAGGTACCCCAGGTTCGCCTGGGATCTGAGCGCGGGCTAATTGTCTACGGGTAGTTTCATTTCCCTCTTCTTCCACTGGCATC
B4: Kobuvirus SZAL6: "Kobuvirus SZAL6 IRES", one of the selected IRES sequences, SEQ ID NOs: 348-389 (nucleic acid, listed as Kobuvirus sp.)
DNA: TTTCACACCCTCTTTTCCGGTGGTCCGGACCCAGACCACCGTTACTCCATTCAGCTACTTCGGTACCTGTTCGGAGGAATTAAACGGGCACCCTACCCAAGGGTTACATGGGACCATATTCCTCCTCCCCTGTAACTTTAAGTTTTGTGCCCGTATTCTTGACTCCAGGCGGATGTTGTGTCGCCCGTCCTGTGAACAAACAGCTAGACACTTTCCTCCCCTCCCTCTGGGCTGCTCCGGCAGTCCACTCCCTCCCCCCAGCGTAACATGCCCCGCTGGAGTGATGCACCTGGAAGTCGTGGACGTGGGTTAGTAACTTCGGTGAAAACCCACTATAATGACAACTGGTTGACCCCCACACTCAAAGGACTCGAGTCTTTCTCCCTTAAGGCTAGCCCGGCCACATGAATTTGCAGCTGGCAACTAGTGAGTCCACCATGTCCCGCAACCTCGGCTGCGGAGTGCTGTTCCCCAAGCGTATGCCTTCCTTCTGTAAGAGTGCGCCTGGCAAGCACATCTGAGAAGTCGTTCCGCTGCGTCGTGCCAACCTGGCGACAGGTGACCCAGTGTGCGTAGACTTCTTCCGGATTCGTCCGGCTCTTCTCTAGGAAACATGCGTGTAAGGTTCATGTGCCAAAGCCCTGCGCGCGGTGTTCTTCTACTGCCCTAGGAATGTGCCGCAGGTACCCCTACTTCGGTAGGGATCTGAGCGGTAGCTAATTGTCTACGGGTAGTTTCATTTCCATCTTCTCTTCAGGTCGACATC
B5: Porcine Kobuvirus GS2 (nucleic acid, listed as Kobuvirus sp.)
DNA: TTTGAAAAGGGGGTGGGGGGGCCTCGGCCCCCTCACCCTCTTTTCCGGTGGCCATTCGCCCGGGCCACCGTTACTCCACTCCACTCCTTCGGGACTGGTTTGGAGGAACACAACAGGGCTTCCCATCCCTGTTTACCCTTTATTCCATCATCCTTTCCCCAAGTTTACCCTATCCACACCCCACTGACTGACTCCTTTGGATTTTGACCTCAGAATGCCTATTTGACCTCCCACTCGCCTCTCCCTTTTCGGATTGCCGGTGGTGCCTGGCGGAAAAAGCACAAGTGTGTTGCAGGCTACCAAACTCCTACCCGACAAAGGTGCGTGTCCGCGTGCTGAGTAATGGGATAGGAGATGCCTACAACAGGCTCGCCCATGAGTAGAGCATGGACTGCGGTGCATGTGACTTCGGTCACCACGGGCATAGCATTGCTCACCCGTGAATCAAGTCATCGAGATTTCTCTGACCTCTGAAGTGCACTGTGGTTGCGTGGCTGGGAATCCACGCTTGACCATGTACTGCTTGATAGAGTCGCGGCTGGCCGACTCATGGGTTAAAGTCAGTTGACAAGACAC
B6: Symapivirus A (nucleic acid)
DNA: TTGGGAAATCCCCAATGCTTCTTTCAACACCGCCTGACTATGCGGTGGCGCTTCGGCTCAAACAACTAGTCACTTCCCCCTCTTAACTACTACCCAAGACTTCTAACTACCCTTACCTACTTATTTGTCTAAATTTCAAACTTTTATTCTCACGCGTCTTATAAACATCTTTTCTATTTGTTATGGTATGTTTTGTGATTTGTGTGGTGTATTTCATTTAATGGGATCTAGTGGACCGTGCCCCGGTTGGGTATCCGCTCCCTTTAAATGTTTGCAAGCACTCTTGACATTATAACCTATCATTTAGTTTACTTGTTTGTATGATCGTATTTCTGAATCGTAACATTTATGCAATTCTTTCTCGCCGAGACTTGTCTAGGAGATAAAGTTCCTGCATATTTAGTGTTACGGTTGTATAATGGAGACTTAGATAGCTTCACACTGAGGACGCTTTTTCGCTATCCTTTTGACCTGATTCAGGCCAGTGTGGAGTTAATGATTGTATGGATGGGCCCTACAATTTGTCTAAGACTTGGTGATAGCCTCGCGGCCGCTCGCCATTTATACAACTGAATAGCGGTTGAAACTCTCT
modifications: Symapivirus A

tested on: HEK293 cells; assay type: cell-based, human; conditions: luminescence from secreted Gluc in supernatant 24 hours after transfection of HEK293 cells; circular RNA encoding Gluc with the named IRES (UTR truncated to 675 nt)

Molecule | Expression
B1 | 5.71E+07
B2 | 6.63E+07
B3 | 3.51E+07
B4 | 98850000
B5 | 44200000
B6 | 1.27E+05
